According to the Human Domainome abundance scans (Beltran et al. 2025):
± gives the uncertainty stated by the source.

B1: Gamma-crystallin S, residues 96 to 176; numbered along this chain, P22914 (parent)
chain: IQIFEKGDFSGQMYETTEDCPSIMEQFHMREIHSCKVLEGVWIFYELPNYRGRQYLLDKKEYRKPIDWGAASPAVQSFRRI

Variants of: B1
Assay: abundance fitness (aPCA) (normalised: wild type 0, dead -1); higher = more abundant; growth selection in yeast, the domain comes from the species named
Conditions: Homo sapiens

Point of comparison: IQHFEKGDFSGQMYETTEDCPSIMEQFHMREIHSCKVLEGVWIFYELPNYRGRQYLLDKKEYRKPIDWGAASPAVQSFRRI, abundance fitness -0.777 ± 0.26. Against it:
- ICIFEKGDFSGQMYETTEDCPSIMEQFHMREIHSCKVLEGVWIFYELPNYRGRQYLLDKKEYRKPIDWGAASPAVQSFRRI — higher, 0.027 ± 0.13
- IDIFEKGDFSGQMYETTEDCPSIMEQFHMREIHSCKVLEGVWIFYELPNYRGRQYLLDKKEYRKPIDWGAASPAVQSFRRI — higher, -0.053 ± 0.084
- IFIFEKGDFSGQMYETTEDCPSIMEQFHMREIHSCKVLEGVWIFYELPNYRGRQYLLDKKEYRKPIDWGAASPAVQSFRRI — higher, 0.17 ± 0.16
- IGIFEKGDFSGQMYETTEDCPSIMEQFHMREIHSCKVLEGVWIFYELPNYRGRQYLLDKKEYRKPIDWGAASPAVQSFRRI — higher, 0.035 ± 0.046
- IHIFEKGDFSGQMYETTEDCPSIMEQFHMREIHSCKVLEGVWIFYELPNYRGRQYLLDKKEYRKPIDWGAASPAVQSFRRI — higher, 0.088 ± 0.086
- IIIFEKGDFSGQMYETTEDCPSIMEQFHMREIHSCKVLEGVWIFYELPNYRGRQYLLDKKEYRKPIDWGAASPAVQSFRRI — higher, 0.221 ± 0.41
- IKIFEKGDFSGQMYETTEDCPSIMEQFHMREIHSCKVLEGVWIFYELPNYRGRQYLLDKKEYRKPIDWGAASPAVQSFRRI — higher, 0.022 ± 0.085
- IMIFEKGDFSGQMYETTEDCPSIMEQFHMREIHSCKVLEGVWIFYELPNYRGRQYLLDKKEYRKPIDWGAASPAVQSFRRI — higher, -0.077 ± 0.1
- INIFEKGDFSGQMYETTEDCPSIMEQFHMREIHSCKVLEGVWIFYELPNYRGRQYLLDKKEYRKPIDWGAASPAVQSFRRI — higher, 0.124 ± 0.13
- IPIFEKGDFSGQMYETTEDCPSIMEQFHMREIHSCKVLEGVWIFYELPNYRGRQYLLDKKEYRKPIDWGAASPAVQSFRRI — within error, -0.876 ± 0.22
- IRIFEKGDFSGQMYETTEDCPSIMEQFHMREIHSCKVLEGVWIFYELPNYRGRQYLLDKKEYRKPIDWGAASPAVQSFRRI — higher, 0.027 ± 0.04
- ISIFEKGDFSGQMYETTEDCPSIMEQFHMREIHSCKVLEGVWIFYELPNYRGRQYLLDKKEYRKPIDWGAASPAVQSFRRI — higher, 0.039 ± 0.075
- ITIFEKGDFSGQMYETTEDCPSIMEQFHMREIHSCKVLEGVWIFYELPNYRGRQYLLDKKEYRKPIDWGAASPAVQSFRRI — higher, -0.066 ± 0.087
- IVIFEKGDFSGQMYETTEDCPSIMEQFHMREIHSCKVLEGVWIFYELPNYRGRQYLLDKKEYRKPIDWGAASPAVQSFRRI — higher, -0.041 ± 0.056
- IWIFEKGDFSGQMYETTEDCPSIMEQFHMREIHSCKVLEGVWIFYELPNYRGRQYLLDKKEYRKPIDWGAASPAVQSFRRI — higher, 0.003 ± 0.068
- IYIFEKGDFSGQMYETTEDCPSIMEQFHMREIHSCKVLEGVWIFYELPNYRGRQYLLDKKEYRKPIDWGAASPAVQSFRRI — higher, -0.099 ± 0.15
- IQAFEKGDFSGQMYETTEDCPSIMEQFHMREIHSCKVLEGVWIFYELPNYRGRQYLLDKKEYRKPIDWGAASPAVQSFRRI — higher, -0.141 ± 0.061
- IQCFEKGDFSGQMYETTEDCPSIMEQFHMREIHSCKVLEGVWIFYELPNYRGRQYLLDKKEYRKPIDWGAASPAVQSFRRI — higher, -0.029 ± 0.092
- IQDFEKGDFSGQMYETTEDCPSIMEQFHMREIHSCKVLEGVWIFYELPNYRGRQYLLDKKEYRKPIDWGAASPAVQSFRRI — within error, -0.705 ± 0.38
- IQEFEKGDFSGQMYETTEDCPSIMEQFHMREIHSCKVLEGVWIFYELPNYRGRQYLLDKKEYRKPIDWGAASPAVQSFRRI — within error, -1 ± 0.22
- IQFFEKGDFSGQMYETTEDCPSIMEQFHMREIHSCKVLEGVWIFYELPNYRGRQYLLDKKEYRKPIDWGAASPAVQSFRRI — higher, 0.031 ± 0.11
- IQGFEKGDFSGQMYETTEDCPSIMEQFHMREIHSCKVLEGVWIFYELPNYRGRQYLLDKKEYRKPIDWGAASPAVQSFRRI — within error, -0.716 ± 0.067
- IQKFEKGDFSGQMYETTEDCPSIMEQFHMREIHSCKVLEGVWIFYELPNYRGRQYLLDKKEYRKPIDWGAASPAVQSFRRI — within error, -1.12 ± 0.24
- IQLFEKGDFSGQMYETTEDCPSIMEQFHMREIHSCKVLEGVWIFYELPNYRGRQYLLDKKEYRKPIDWGAASPAVQSFRRI — higher, -0.02 ± 0.053
- IQMFEKGDFSGQMYETTEDCPSIMEQFHMREIHSCKVLEGVWIFYELPNYRGRQYLLDKKEYRKPIDWGAASPAVQSFRRI — higher, -0.018 ± 0.072
- IQNFEKGDFSGQMYETTEDCPSIMEQFHMREIHSCKVLEGVWIFYELPNYRGRQYLLDKKEYRKPIDWGAASPAVQSFRRI — within error, -0.627 ± 0.14
- IQPFEKGDFSGQMYETTEDCPSIMEQFHMREIHSCKVLEGVWIFYELPNYRGRQYLLDKKEYRKPIDWGAASPAVQSFRRI — within error, -1.2 ± 0.23
- IQQFEKGDFSGQMYETTEDCPSIMEQFHMREIHSCKVLEGVWIFYELPNYRGRQYLLDKKEYRKPIDWGAASPAVQSFRRI — within error, -1.08 ± 0.23
- IQRFEKGDFSGQMYETTEDCPSIMEQFHMREIHSCKVLEGVWIFYELPNYRGRQYLLDKKEYRKPIDWGAASPAVQSFRRI — within error, -0.703 ± 0.081
- IQSFEKGDFSGQMYETTEDCPSIMEQFHMREIHSCKVLEGVWIFYELPNYRGRQYLLDKKEYRKPIDWGAASPAVQSFRRI — within error, -0.931 ± 0.13
- IQTFEKGDFSGQMYETTEDCPSIMEQFHMREIHSCKVLEGVWIFYELPNYRGRQYLLDKKEYRKPIDWGAASPAVQSFRRI — higher, -0.185 ± 0.053
- IQWFEKGDFSGQMYETTEDCPSIMEQFHMREIHSCKVLEGVWIFYELPNYRGRQYLLDKKEYRKPIDWGAASPAVQSFRRI — higher, -0.047 ± 0.056
- IQYFEKGDFSGQMYETTEDCPSIMEQFHMREIHSCKVLEGVWIFYELPNYRGRQYLLDKKEYRKPIDWGAASPAVQSFRRI — higher, -0.286 ± 0.1
- IQIAEKGDFSGQMYETTEDCPSIMEQFHMREIHSCKVLEGVWIFYELPNYRGRQYLLDKKEYRKPIDWGAASPAVQSFRRI — higher, -0.275 ± 0.05
- IQICEKGDFSGQMYETTEDCPSIMEQFHMREIHSCKVLEGVWIFYELPNYRGRQYLLDKKEYRKPIDWGAASPAVQSFRRI — higher, -0.008 ± 0.079
- IQIDEKGDFSGQMYETTEDCPSIMEQFHMREIHSCKVLEGVWIFYELPNYRGRQYLLDKKEYRKPIDWGAASPAVQSFRRI — within error, -0.971 ± 0.2
- IQIEEKGDFSGQMYETTEDCPSIMEQFHMREIHSCKVLEGVWIFYELPNYRGRQYLLDKKEYRKPIDWGAASPAVQSFRRI — within error, -1.16 ± 0.23
- IQIGEKGDFSGQMYETTEDCPSIMEQFHMREIHSCKVLEGVWIFYELPNYRGRQYLLDKKEYRKPIDWGAASPAVQSFRRI — higher, -0.414 ± 0.042
- IQIHEKGDFSGQMYETTEDCPSIMEQFHMREIHSCKVLEGVWIFYELPNYRGRQYLLDKKEYRKPIDWGAASPAVQSFRRI — higher, -0.017 ± 0.095
- IQIIEKGDFSGQMYETTEDCPSIMEQFHMREIHSCKVLEGVWIFYELPNYRGRQYLLDKKEYRKPIDWGAASPAVQSFRRI — within error, -0.987 ± 0.14
- IQIKEKGDFSGQMYETTEDCPSIMEQFHMREIHSCKVLEGVWIFYELPNYRGRQYLLDKKEYRKPIDWGAASPAVQSFRRI — higher, -0.193 ± 0.19
- IQIMEKGDFSGQMYETTEDCPSIMEQFHMREIHSCKVLEGVWIFYELPNYRGRQYLLDKKEYRKPIDWGAASPAVQSFRRI — higher, -0.045 ± 0.064
- IQINEKGDFSGQMYETTEDCPSIMEQFHMREIHSCKVLEGVWIFYELPNYRGRQYLLDKKEYRKPIDWGAASPAVQSFRRI — higher, -0.231 ± 0.11
- IQIPEKGDFSGQMYETTEDCPSIMEQFHMREIHSCKVLEGVWIFYELPNYRGRQYLLDKKEYRKPIDWGAASPAVQSFRRI — within error, -0.967 ± 0.18
- IQIQEKGDFSGQMYETTEDCPSIMEQFHMREIHSCKVLEGVWIFYELPNYRGRQYLLDKKEYRKPIDWGAASPAVQSFRRI — within error, -0.868 ± 0.14
- IQIREKGDFSGQMYETTEDCPSIMEQFHMREIHSCKVLEGVWIFYELPNYRGRQYLLDKKEYRKPIDWGAASPAVQSFRRI — within error, -0.945 ± 0.11
- IQISEKGDFSGQMYETTEDCPSIMEQFHMREIHSCKVLEGVWIFYELPNYRGRQYLLDKKEYRKPIDWGAASPAVQSFRRI — higher, -0.113 ± 0.031
- IQITEKGDFSGQMYETTEDCPSIMEQFHMREIHSCKVLEGVWIFYELPNYRGRQYLLDKKEYRKPIDWGAASPAVQSFRRI — within error, -0.585 ± 0.094
- IQIVEKGDFSGQMYETTEDCPSIMEQFHMREIHSCKVLEGVWIFYELPNYRGRQYLLDKKEYRKPIDWGAASPAVQSFRRI — within error, -0.906 ± 0.082
- IQIWEKGDFSGQMYETTEDCPSIMEQFHMREIHSCKVLEGVWIFYELPNYRGRQYLLDKKEYRKPIDWGAASPAVQSFRRI — higher, -0.067 ± 0.056
- IQIYEKGDFSGQMYETTEDCPSIMEQFHMREIHSCKVLEGVWIFYELPNYRGRQYLLDKKEYRKPIDWGAASPAVQSFRRI — higher, -0.094 ± 0.096
- IQIFCKGDFSGQMYETTEDCPSIMEQFHMREIHSCKVLEGVWIFYELPNYRGRQYLLDKKEYRKPIDWGAASPAVQSFRRI — higher, -0.022 ± 0.064
- IQIFDKGDFSGQMYETTEDCPSIMEQFHMREIHSCKVLEGVWIFYELPNYRGRQYLLDKKEYRKPIDWGAASPAVQSFRRI — higher, -0.05 ± 0.062
- IQIFFKGDFSGQMYETTEDCPSIMEQFHMREIHSCKVLEGVWIFYELPNYRGRQYLLDKKEYRKPIDWGAASPAVQSFRRI — higher, 0.057 ± 0.084
- IQIFGKGDFSGQMYETTEDCPSIMEQFHMREIHSCKVLEGVWIFYELPNYRGRQYLLDKKEYRKPIDWGAASPAVQSFRRI — higher, -0.02 ± 0.039
- IQIFHKGDFSGQMYETTEDCPSIMEQFHMREIHSCKVLEGVWIFYELPNYRGRQYLLDKKEYRKPIDWGAASPAVQSFRRI — higher, -0.041 ± 0.11
- IQIFIKGDFSGQMYETTEDCPSIMEQFHMREIHSCKVLEGVWIFYELPNYRGRQYLLDKKEYRKPIDWGAASPAVQSFRRI — higher, 0.014 ± 0.086
- IQIFKKGDFSGQMYETTEDCPSIMEQFHMREIHSCKVLEGVWIFYELPNYRGRQYLLDKKEYRKPIDWGAASPAVQSFRRI — higher, -0.007 ± 0.094
- IQIFLKGDFSGQMYETTEDCPSIMEQFHMREIHSCKVLEGVWIFYELPNYRGRQYLLDKKEYRKPIDWGAASPAVQSFRRI — higher, 0.013 ± 0.051
- IQIFMKGDFSGQMYETTEDCPSIMEQFHMREIHSCKVLEGVWIFYELPNYRGRQYLLDKKEYRKPIDWGAASPAVQSFRRI — higher, 0.028 ± 0.12
- IQIFNKGDFSGQMYETTEDCPSIMEQFHMREIHSCKVLEGVWIFYELPNYRGRQYLLDKKEYRKPIDWGAASPAVQSFRRI — higher, -0.062 ± 0.13
- IQIFPKGDFSGQMYETTEDCPSIMEQFHMREIHSCKVLEGVWIFYELPNYRGRQYLLDKKEYRKPIDWGAASPAVQSFRRI — higher, -0.01 ± 0.065
- IQIFQKGDFSGQMYETTEDCPSIMEQFHMREIHSCKVLEGVWIFYELPNYRGRQYLLDKKEYRKPIDWGAASPAVQSFRRI — higher, 0.12 ± 0.092
- IQIFRKGDFSGQMYETTEDCPSIMEQFHMREIHSCKVLEGVWIFYELPNYRGRQYLLDKKEYRKPIDWGAASPAVQSFRRI — higher, -0.002 ± 0.047
- IQIFSKGDFSGQMYETTEDCPSIMEQFHMREIHSCKVLEGVWIFYELPNYRGRQYLLDKKEYRKPIDWGAASPAVQSFRRI — higher, -0.046 ± 0.04
- IQIFTKGDFSGQMYETTEDCPSIMEQFHMREIHSCKVLEGVWIFYELPNYRGRQYLLDKKEYRKPIDWGAASPAVQSFRRI — higher, -0.07 ± 0.094
- IQIFVKGDFSGQMYETTEDCPSIMEQFHMREIHSCKVLEGVWIFYELPNYRGRQYLLDKKEYRKPIDWGAASPAVQSFRRI — higher, 0.051 ± 0.039
